Source: patent EP3782644A1

Target: ErbB2-Domain4 protein (human) (UniProt P04626)
Assay: indirect ELISA, ErbB2-Domain4 protein coated at 100 ng/well, antibody in serial dilution, absorbance at 450 nm

EC50: 100 nM
B1: anti-ErbB2 monoclonal antibody 19G9 (antibody, V domains shown)
VH: LEQSGPGILQPSQTLSLICSFSGFSLSTSGMGVSWIRQPSGKGLEWLAHIYWDDDKRYNPSLKSRLTISKDTSSKQVFLKITSVDTADTATYYCALFAYYNYDGTVDYWGLGTSVTVSS
VL: DIVMTQTPSSLAVSVGEKVTMSCKSSQSLLHSRTRKNYLAWYQQKLGQSPKLLIYWASTRESGVPDRFTGSGSGTDFTLTISSVEAEDLAVYYCKQSYNLYTFGGGTKLEIK
